Test results as given in article PMC3896444, “Structural Basis of Thermal Stability of the Tungsten Cofactor Synthesis Protein MoaB from Pyrococcus furiosus” (PLoS ONE, 2014).
Positions count from the first letter of the chain named. Numbers in names are those of the source. Where “and” joins values, the source holds several entries; their conditions need not be identical. Equal entries are not always repeated.

Tests used:
[1] = biological target: PfuMoaB-H3 variant (α3-helix exchanged against the corresponding helix of E. coli MogA) (Pyrococcus furiosus) (UniProt Q8U3T3); test: cross-linking; 0.5 mg/ml protein, 1.5 mM BS3, 20 mM sodium phosphate pH 8.0, 0.2 M NaCl, 30 min; SDS-PAGE
[2] = biological target: PfuMoaB-H3 variant (α3-helix exchanged against the corresponding helix of E. coli MogA) (Pyrococcus furiosus) (UniProt Q8U3T3); test: cross-linking; 0.5 mg/ml protein, 2 mM EDC, 0.1 M MES pH 6.0, 0.5 M NaCl, 3 h; SDS-PAGE; trimer bands analysed by LC-MS/MS
[3] = biological target: PfuMoaB-H3 variant (α3-helix exchanged against the corresponding helix of E. coli MogA) (Pyrococcus furiosus) (UniProt Q8U3T3); test: SEC; analytical Superdex 200 10/300, 0.1 M Tris pH 8.0, 0.2 M NaCl, 0.5 ml/min, 4°C; 5-10 nmol of Ni-NTA purified protein; masses by standard proteins
[4] = biological target: the molecule itself; test: as above
[5] = biological target: the molecule itself; test: cross-linking; 0.5 mg/ml protein, 2 mM EDC, 0.1 M MES pH 6.0, 0.5 M NaCl, 3 h; SDS-PAGE; trimer bands analysed by LC-MS/MS
[6] = biological target: the molecule itself; test: crystal structure; space group P3(1)21, three chains in the asymmetric unit, hexamer by the two-fold crystallographic axis; crystals from 0.1 MES pH 6.0, 40% PEG 400, 5% PEG 3000, 20°C; 2.5 Å
[7] = biological target: the molecule itself; test: SEC; preparative Superdex 200 16/60 pg, Ni-NTA purified protein; fractions analysed by SDS-PAGE

## PfuMoaB-H3 variant (α3-helix exchanged against the corresponding helix of E. coli MogA) (from UniProt Q8U3T3 1-169) (enzyme)
[1]
  stoichiometry N: 3 and 2
[2]
  stoichiometry N: 2 and 3
[3]
  stoichiometry N: 3 and 2

B1: G-domain of A. thaliana Cnx1 (domain or fragment, Arabidopsis thaliana)
chain: VPGPEYKVAILTVSDTVSAGAGPDRSGPRAVSVVDSSSEKLGGAKVVATAVVPDEVERIKDILQKWSDVDEMDLILTLGGTGFTPRDVTPEATKKVIERETPGLLFVMMQESLKITPFAMLSRSAAGIRGSTLIINMPGNPNAVAECMEALLPALKHALKQIKGDKR
notes: G domain of the molybdenum cofactor biosynthesis protein Cnx1 of Arabidopsis thaliana; also called AthCnx1G; Cnx1G; source: E. coli, purified (Ni-NTA)
[4]
  stoichiometry N: 3

B2: Pyrococcus furiosus MPT-adenylyl-transferase MoaB, wild type (enzyme)
chain: MGVEEHKKEAPKTFKFGVITVSDKGAKGEREDKSGPLIIEELSKLGEHVYYKIVPDDKIEVLIALFEAIKSGADVVVTTGGTGITRRDITIESIKPLFDKELSFGEVFRAKSYEEVGYATVLTRATAGIIRGQERIVVVFSLPGSVNAVKTGLEIIKSEVFHILKHARE
notes: MoaB, MPT-adenylyl-transferase of Pyrococcus furiosus; residues from 1 on are in the construct (1-9/10/11 disordered in the crystal), Glu169 is named; predicted mass with tag 19,971.95 Da; also called PfuMoaB; PfuMoaB-WT; source: E. coli BL21(DE3), purified (Ni-NTA); not shown: His-tag, N-terminal, kept
[5]
  stoichiometry N: 3 and 2
[6]
  stoichiometry N: 6

B3: PfuMoaB I59R/I63R/F66R variant (enzyme, Pyrococcus furiosus)
chain: B2 chain with I59R, I63R, F66R
notes: MoaB of Pyrococcus furiosus with three arginines in the α3-helix; Increased tendency to precipitation was observed
[7]
  binding result: binds

B4: E. coli MogA (enzyme, Escherichia coli, UniProt P0AF03 1-195, looked up)
chain: MNTLRIGLVSISDRASSGVYQDKGIPALEEWLTSALTTPFELETRLIPDEQAIIEQTLCELVDEMSCHLVLTTGGTGPARRDVTPDATLAVADREMPGFGEQMRQISLHFVPTAILSRQVGVIRKQALILNLPGQPKSIKETLEGVKDAEGNVVVHGIFASVPYCIQLLEGPYVETAPEVVAAFRPKSARRDVSE
notes: MogA, MPT-adenylyl-transferase of Escherichia coli; also called EcoMogA; MogA (E. coli); source: E. coli, purified (Ni-NTA); not shown: His-tag, N-terminal, kept
[4]
  stoichiometry N: 3

B5: E. coli MoaB (natural protein, Escherichia coli, UniProt P0AEZ9 1-170, looked up)
chain: MSQVSTEFIPTRIAILTVSNRRGEEDDTSGHYLRDSAQEAGHHVVDKAIVKENRYAIRAQVSAWIASDDVQVVLITGGTGLTEGDQAPEALLPLFDREVEGFGEVFRMLSFEEIGTSTLQSRAVAGVANKTLIFAMPGSTKACRTAWENIIAPQLDARTRPCNFHPHLKK
notes: MoaB of Escherichia coli; also called EcoMoaB; source: E. coli, purified (Ni-NTA)
[4]
  stoichiometry N: 6
